# Substitutions are numbered along the chain they refer to.
# B1: chimeric antibody 104E10 (antibody, human IgG1, kappa)
# heavy: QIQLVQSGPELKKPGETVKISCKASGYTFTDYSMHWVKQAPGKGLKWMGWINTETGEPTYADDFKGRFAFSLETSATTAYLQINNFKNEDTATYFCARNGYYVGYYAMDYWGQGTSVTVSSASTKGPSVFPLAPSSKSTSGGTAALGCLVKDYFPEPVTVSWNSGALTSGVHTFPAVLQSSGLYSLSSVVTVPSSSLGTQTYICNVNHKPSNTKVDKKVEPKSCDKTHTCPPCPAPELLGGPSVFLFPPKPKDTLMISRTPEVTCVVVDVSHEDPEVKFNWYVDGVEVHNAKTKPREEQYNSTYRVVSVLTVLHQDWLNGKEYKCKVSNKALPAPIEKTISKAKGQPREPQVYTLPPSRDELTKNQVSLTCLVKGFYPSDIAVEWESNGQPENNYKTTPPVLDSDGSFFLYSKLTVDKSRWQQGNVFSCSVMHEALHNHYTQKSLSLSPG
# light: QIVLTQSPAIMSASPGEKVTMTCSASSSVIYMHWFQQKPGTSPKLWIYSTSNLASGVPARFSGSGSGTSYSLTISRMEAEDAATYYCQQRRSYPYTFGGGTKLEIKRTVAAPSVFIFPPSDEQLKSGTASVVCLLNNFYPREAKVQWKVDNALQSGNSQESVTEQDSKDSTYSLSSTLTLSKADYEKHKVYACEVTHQGLSSPVTKSFNRGEC
# notes: Family 2
# B2: chimeric antibody 102E9 (antibody, human IgG1, kappa)
# heavy: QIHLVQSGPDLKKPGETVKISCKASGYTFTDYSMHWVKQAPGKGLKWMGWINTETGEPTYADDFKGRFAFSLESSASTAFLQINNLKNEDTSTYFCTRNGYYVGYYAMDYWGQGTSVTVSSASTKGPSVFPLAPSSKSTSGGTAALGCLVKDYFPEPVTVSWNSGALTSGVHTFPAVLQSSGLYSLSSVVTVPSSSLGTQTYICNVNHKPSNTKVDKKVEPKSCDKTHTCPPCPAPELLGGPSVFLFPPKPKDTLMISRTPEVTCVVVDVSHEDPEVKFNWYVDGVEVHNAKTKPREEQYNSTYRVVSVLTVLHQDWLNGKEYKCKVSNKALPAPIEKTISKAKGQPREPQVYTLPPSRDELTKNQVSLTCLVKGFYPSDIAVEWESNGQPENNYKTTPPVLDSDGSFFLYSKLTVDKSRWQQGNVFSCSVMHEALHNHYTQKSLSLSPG
# light: B1 light with M21I, M32I, N52Y, Y95F
# notes: Family 2; the text gives the same values for 102E9
# B3: chimeric antibody 114D11 (antibody, human IgG1, kappa)
# heavy: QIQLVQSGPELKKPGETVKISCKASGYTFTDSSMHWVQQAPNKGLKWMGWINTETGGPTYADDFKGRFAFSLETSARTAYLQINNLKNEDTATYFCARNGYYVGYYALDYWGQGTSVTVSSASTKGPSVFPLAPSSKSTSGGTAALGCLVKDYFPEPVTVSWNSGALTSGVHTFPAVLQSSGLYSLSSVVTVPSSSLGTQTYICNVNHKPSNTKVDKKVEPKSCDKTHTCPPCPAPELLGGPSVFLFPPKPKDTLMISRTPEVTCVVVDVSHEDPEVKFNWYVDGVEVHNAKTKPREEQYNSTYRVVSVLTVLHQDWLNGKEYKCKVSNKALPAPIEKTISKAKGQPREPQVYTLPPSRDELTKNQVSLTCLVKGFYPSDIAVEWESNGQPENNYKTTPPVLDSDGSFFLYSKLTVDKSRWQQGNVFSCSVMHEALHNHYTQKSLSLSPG
# light: B1 light with M21I, I30F
# notes: Family 2
# B4: chimeric antibody 104C12 (antibody, human IgG1, kappa)
# heavy: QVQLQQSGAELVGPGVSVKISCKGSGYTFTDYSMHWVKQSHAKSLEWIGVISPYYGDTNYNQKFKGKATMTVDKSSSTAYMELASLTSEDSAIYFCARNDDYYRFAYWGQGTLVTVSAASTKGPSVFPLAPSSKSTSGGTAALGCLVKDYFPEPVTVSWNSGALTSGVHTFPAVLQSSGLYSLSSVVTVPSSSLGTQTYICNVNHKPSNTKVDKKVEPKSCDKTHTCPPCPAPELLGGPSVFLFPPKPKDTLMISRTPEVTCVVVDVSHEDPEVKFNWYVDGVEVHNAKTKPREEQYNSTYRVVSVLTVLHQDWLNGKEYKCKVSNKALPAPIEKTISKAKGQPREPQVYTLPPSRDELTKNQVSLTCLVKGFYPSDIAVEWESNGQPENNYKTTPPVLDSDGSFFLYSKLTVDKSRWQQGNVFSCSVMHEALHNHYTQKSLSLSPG
# light: DLQMTQTPSSLSASLGDRVTISCRASQDINNYLSWYQEKPDGTFKLLIYYTSRLHSGVPSRFSGSGSGTDYSLTVRNLEQEDIGTYFCQQGKTLPWTFGGGTKLEIRRTVAAPSVFIFPPSDEQLKSGTASVVCLLNNFYPREAKVQWKVDNALQSGNSQESVTEQDSKDSTYSLSSTLTLSKADYEKHKVYACEVTHQGLSSPVTKSFNRGEC
# notes: Family 1
# B5: chimeric antibody 122A2 (antibody, human IgG1, kappa)
# heavy: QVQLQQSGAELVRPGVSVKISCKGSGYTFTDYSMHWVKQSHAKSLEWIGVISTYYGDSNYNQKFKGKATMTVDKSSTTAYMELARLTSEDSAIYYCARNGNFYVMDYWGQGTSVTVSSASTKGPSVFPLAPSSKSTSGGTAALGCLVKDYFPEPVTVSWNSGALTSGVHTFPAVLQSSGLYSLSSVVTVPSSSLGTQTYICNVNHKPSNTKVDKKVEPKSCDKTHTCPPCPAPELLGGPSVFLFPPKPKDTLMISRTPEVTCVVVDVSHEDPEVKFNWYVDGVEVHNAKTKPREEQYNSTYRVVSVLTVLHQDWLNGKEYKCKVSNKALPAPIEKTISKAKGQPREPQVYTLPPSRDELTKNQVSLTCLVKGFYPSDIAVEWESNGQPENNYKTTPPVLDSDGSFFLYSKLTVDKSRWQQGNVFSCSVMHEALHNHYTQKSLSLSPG
# light: DIQMTQTTSSLSASLGDRVTISCRASQDISNYLNWYQQKPDGTVKLLIYYTSRLHSGVPSRFSGSGSGTDYSLTISNLDQEDIATYFCQQGNTLPWTFGGGTKLEIKRTVAAPSVFIFPPSDEQLKSGTASVVCLLNNFYPREAKVQWKVDNALQSGNSQESVTEQDSKDSTYSLSSTLTLSKADYEKHKVYACEVTHQGLSSPVTKSFNRGEC
# notes: Family 1; also called Ch; 122A2 mAb; Ch122A2 mAb
# Molecular target: T1, human CD303 antigen (C-type lectin domain family 4 member C) (human, UniProt Q8WTT0 1-213)
# T1 sequence: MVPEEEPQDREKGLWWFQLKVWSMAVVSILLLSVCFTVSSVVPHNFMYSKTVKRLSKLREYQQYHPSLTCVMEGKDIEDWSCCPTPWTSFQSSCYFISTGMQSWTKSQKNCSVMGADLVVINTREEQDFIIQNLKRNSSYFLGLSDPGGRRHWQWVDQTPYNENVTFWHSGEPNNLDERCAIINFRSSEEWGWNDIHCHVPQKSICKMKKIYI
# Experiment: cell-based or functional assay
Binder,ADCC EC50 (ng/mL) on Fc Gamma chain-CD303 Jurkat target cells [ng/mL],ADCC Emax (% lysis) on Fc Gamma chain-CD303 Jurkat target cells [% lysis]
B1,8.28,40.5
B2,3.42,38.9
B3,3.61,37.4
B4,0.214,41.8
B5,0.159,42.4

# Molecular target: T2, FcγRIIIa (CD16a) (UniProt P08637 17-254, limits assumed)
# T2 construct: whole, on cells; also called FcvRIIIa
# Experiment: competition with 3G8-PE for CD16 on NK cells, flow cytometry
# Method: After washing, the binding of 3G8-PE to CD16 expressed by the NK cells was evaluated by flow cytometry. Mean fluorescence intensity (MFI) values are expressed as a percentage, 100% being the value obtained with the 3G8-PE antibody alone, and 0% the value obtained in the absence of 3G8-PE.
# T2 sequence (P08637 17-254 limits assumed): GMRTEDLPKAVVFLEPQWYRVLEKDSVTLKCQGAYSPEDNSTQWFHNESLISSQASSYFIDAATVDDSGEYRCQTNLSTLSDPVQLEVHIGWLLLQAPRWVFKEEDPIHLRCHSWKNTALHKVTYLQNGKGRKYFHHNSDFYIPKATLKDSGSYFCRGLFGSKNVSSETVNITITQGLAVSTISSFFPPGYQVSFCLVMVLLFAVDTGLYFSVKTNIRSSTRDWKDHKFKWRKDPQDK
row,Binder,IC50 [µg/mL]
1,B1,18.1
2,B2,37
3,B3,45
4,B4,26.8
5,B5,40.4

# From patent US20190002567A1 (LABORATOIRE FRANCAIS DU FRACTIONNEMENT ET DES …, published 2019)
